Data on one molecule can be found in publication PMC11375530, “The 8‐oxoguanine DNA glycosylase‐synaptotagmin 7 pathway increases extracellular vesicle release and promotes tumour metastasis during oxidative stress”.

In the data set the target is OGG1 (8-oxoguanine DNA glycosylase) (UniProt O15527 1-345). In words: EMSA; EMSA: DNA-binding buffer (composition not given), 10 min on ice then 10 min at 37 C, 7% native PAGE in 1x TBE; pull-down: 4 C, 12 h, 1 mM PMSF, PBS washes. Particulars: protein: commercial; label: 5'-FAM on strand 2; blunt. In general terms: In EMSA bound probe runs differently from free probe, usually more slowly.
OGG1 (8-oxoguanine DNA glycosylase), sequence (O15527 whole entry): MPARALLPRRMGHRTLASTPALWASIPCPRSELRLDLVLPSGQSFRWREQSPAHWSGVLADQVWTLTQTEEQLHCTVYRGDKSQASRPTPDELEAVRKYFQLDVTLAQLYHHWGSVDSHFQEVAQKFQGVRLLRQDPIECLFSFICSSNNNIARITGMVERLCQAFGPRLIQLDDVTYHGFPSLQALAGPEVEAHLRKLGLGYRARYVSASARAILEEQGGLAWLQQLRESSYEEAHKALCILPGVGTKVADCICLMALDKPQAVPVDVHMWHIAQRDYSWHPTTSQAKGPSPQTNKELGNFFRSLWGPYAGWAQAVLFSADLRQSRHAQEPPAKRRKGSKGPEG

B1: 8-oxoG-SYT7 (FAM) (dsDNA)
DNA 1: CGGGCGGGCGGGAGGGCTGGCGGGCGGCCCCC
DNA 2: GGGGGCCGCCCGCCAGCCCTCCCGCCCGCCCG
modifications: 8-oxoG at position 12 of strand 1 (printed ...CGGoGAGGG...)
For the molecule B1, the binding result is “binds”.
